# Measured values reported in the supplement of paper PMC7877785.
# ± gives the uncertainty stated by the source.
# Assay: self-splicing fitness, log relative to wild type (ln ratio); higher = more splicing; Tetrahymena group I intron in knt gene, E. coli kanamycin selection, DiMSum; sequences stand for … in CUCUCU…GGAGGGAAAAGUUAUCAGGCAUGCACCUGGUAGCUAGUCUUUAAACCAAUAGAUUGCAUCGGUUUAAAAGGCAAGACCGUCAAAUUGCGGGAAAGGGGUCAACAGCCGUUCAGUACCAAGUCUCAGGGGAAACUUUGAGAUGGCCUUGCAAAGGGUAUGGUAAUAAGCUGACGGACAUGGUCCUAACCACGCAGCCAAGUCCUAAGUCAACAGAUCUUCUGUUGAUAUGGAUGCAGUUCACAGACUAAAUGUCGGUCGGGGAAGAUGUAUUCUUCUCAUAAGAUAUAGUCGGACCUCUCCUUAAUGGGAGCUAGCGGAUGAAGUGAUGCAACACUGGAGCCGCUGGGAACUAAUUUGUAUGCGAAAGUAUAUUGAUUAGUUUUGGAGUACUCGUGGUCG
# Summary of the method: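 Colonies from six replicate transformations of E. coli BL21(DE3) were pooled and amplicon-sequenced on an Illumina HiSeq 2500. The library placed an intron with all eight P1ex-region nucleotides randomised inside the knt kanamycin-resistance gene on pET-22b(+), and cells grew overnight at 37°C or 30°C on LB agar with or without 25 μg/mL kanamycin (plus 100 μg/mL carbenicillin, 50 μM IPTG, 0.2% rhamnose). Fitness is the DiMSum error-weighted combination of wild-type-normalised replicate fold changes, kanamycin versus none.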
Sequence,self-splicing fitness (ln) (30 °C),self-splicing fitness (ln) (37 °C)
UUAUAGCAAUAUUACGGCGU,-2.88 ± 0.34,-1.7 ± 0.23
UUAUAGCAAUAUUACGGGAG,-2.25 ± 0.25,-1.94 ± 0.31
UUAUAGCAAUAUUACGGGUG,-1.68 ± 0.1,-0.829 ± 0.12
UUAUAGCAAUAUUACGUACU,-1.49 ± 0.18,-1 ± 0.23
UUAUAGCAAUAUUACGUAGA,-1.34 ± 0.17,-0.707 ± 0.17
UUAUAGCAAUAUUACGUCAG,-1.61 ± 0.13,-0.818 ± 0.12
UUAUAGCAAUAUUACGUUGA,-2.54 ± 0.42,-1.58 ± 0.27
UUCAAGCAAUAUUACGAAAG,-3.65 ± 0.24,-2.39 ± 0.28
UUCAAGCAAUAUUACGAAUG,-4.12 ± 0.24,-2.87 ± 0.27
UUCAAGCAAUAUUACGACCA,-1.48 ± 0.31,-0.352 ± 0.21
UUCAAGCAAUAUUACGACGA,-0.243 ± 0.084,0.213 ± 0.084
UUCAAGCAAUAUUACGAGAU,-3.07 ± 0.19,-2.17 ± 0.18
UUCAAGCAAUAUUACGAGGU,-3.41 ± 0.29,-1.89 ± 0.23
UUCAAGCAAUAUUACGAUGA,-0.963 ± 0.097,0.0199 ± 0.092
UUCAAGCAAUAUUACGAUUC,-2.57 ± 0.15,-2.22 ± 0.19
UUCAAGCAAUAUUACGCAAU,-2.21 ± 0.19,-1.99 ± 0.21
UUCAAGCAAUAUUACGCCUU,-1.8 ± 0.13,-0.968 ± 0.2
UUCAAGCAAUAUUACGCGCA,-0.732 ± 0.13,0.264 ± 0.17
UUCAAGCAAUAUUACGCGCC,-0.923 ± 0.17,-1.38 ± 0.25
UUCAAGCAAUAUUACGCGUU,-2.62 ± 0.12,-0.189 ± 0.09
UUCAAGCAAUAUUACGGCCC,-1.49 ± 0.17,-0.618 ± 0.18
UUCAAGCAAUAUUACGGCGG,-0.903 ± 0.076,-0.416 ± 0.1
UUCAAGCAAUAUUACGGGAU,-3.11 ± 0.13,-1.4 ± 0.14

Sequence,self-splicing fitness (ln) (30 °C),self-splicing fitness (ln) (37 °C)
UUCAAGCAAUAUUACGGGCU,-3.7 ± 0.21,-1.81 ± 0.16
UUCAAGCAAUAUUACGGUAC,-2.8 ± 0.2,-2.71 ± 0.36
UUCAAGCAAUAUUACGGUCG,-0.917 ± 0.1,-0.62 ± 0.13
UUCAAGCAAUAUUACGGUCU,-2.89 ± 0.16,-1.97 ± 0.16
UUCAAGCAAUAUUACGGUUA,-0.0762 ± 0.097,0.272 ± 0.086
UUCAAGCAAUAUUACGUCGA,-0.383 ± 0.078,-0.0975 ± 0.087
UUCAAGCAAUAUUACGUGCG,-1.48 ± 0.092,-0.425 ± 0.088
UUCAAGCAAUAUUACGUGGU,-4.01 ± 0.2,-2.7 ± 0.17
UUCAAGCAAUAUUACGUUAA,-1.59 ± 0.11,-1.47 ± 0.12
UUCAAGCAAUAUUACGUUAC,-3.73 ± 0.36,-2.72 ± 0.23
UUCAAGCAAUAUUACGUUCU,-2.22 ± 0.14,-2.14 ± 0.17
UUCAAGCAAUAUUACGUUUU,-3.78 ± 0.17,-2.65 ± 0.16
UUCCAGCAAUAUUACGAAAG,-2.6 ± 0.27,-2.33 ± 0.27
UUCCAGCAAUAUUACGAACG,-2.22 ± 0.16,-0.164 ± 0.15
UUCCAGCAAUAUUACGAGGA,-1.83 ± 0.19,-0.64 ± 0.22
UUCCAGCAAUAUUACGCAGG,-3.53 ± 0.23,-2.57 ± 0.36
UUCCAGCAAUAUUACGCAUG,-3.41 ± 0.25,-1.7 ± 0.16
UUCCAGCAAUAUUACGCAUU,-3.09 ± 0.17,-0.682 ± 0.11
UUCCAGCAAUAUUACGCCCA,-1.38 ± 0.18,-0.115 ± 0.17
UUCCAGCAAUAUUACGCCGU,-2.53 ± 0.16,-1.43 ± 0.23
UUCCAGCAAUAUUACGCGGU,-3.42 ± 0.18,-2.54 ± 0.2
UUCCAGCAAUAUUACGCUUU,-3.23 ± 0.23,-0.119 ± 0.12
UUCCAGCAAUAUUACGGAGC,-4.31 ± 0.31,-2.99 ± 0.47
